The target in experiment [1] is RGS7/TS-Gβ5 duplex (human) (UniProt P49802). As to the kind of experiment: pull-down; Expi293 cells co-transfected with RGS7, TS-Gβ5, R7BP-HIS and either WDR61 (sample A) or R7BPΔNC (sample B); lysate on MagStrep type3 XT beads, 4 °C, one hour; Western blot with anti-Gβ5 and anti-R7BP, bands quantified. (In general: Immunoblotting shows a protein as a band on a membrane.)

The target of experiment [2] is R7BPΔNC (construct R7BPΔNC-TEV-TS) (human) (UniProt Q6MZT1). The experiment is described as follows: SPR; OpenSPR (Nicoya), Streptavidin sensor chip; tagged R7BP variant as ligand, purified R7-RGS/Gβ5 duplex as analyte at 3–5 concentrations; PBS pH 7.4, 0.005% Tween20; 25 µL per minute; 1:1-binding model; two independent experiments.

Chain of RGS6/Gβ5 duplex (P49758 whole entry): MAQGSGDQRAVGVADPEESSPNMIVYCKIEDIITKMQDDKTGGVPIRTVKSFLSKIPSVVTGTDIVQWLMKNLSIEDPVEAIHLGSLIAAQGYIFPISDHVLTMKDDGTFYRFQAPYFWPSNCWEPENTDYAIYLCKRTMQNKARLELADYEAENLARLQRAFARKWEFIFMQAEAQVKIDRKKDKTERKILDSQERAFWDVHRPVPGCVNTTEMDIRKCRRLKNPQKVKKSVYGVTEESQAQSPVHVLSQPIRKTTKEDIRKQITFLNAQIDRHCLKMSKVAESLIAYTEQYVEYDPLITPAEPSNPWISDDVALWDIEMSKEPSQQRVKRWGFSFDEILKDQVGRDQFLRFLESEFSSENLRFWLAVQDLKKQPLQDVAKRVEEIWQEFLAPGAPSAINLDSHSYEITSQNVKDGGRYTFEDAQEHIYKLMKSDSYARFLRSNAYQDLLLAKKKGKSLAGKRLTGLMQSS
Chain of RGS6/Gβ5 duplex (O14775 43-395): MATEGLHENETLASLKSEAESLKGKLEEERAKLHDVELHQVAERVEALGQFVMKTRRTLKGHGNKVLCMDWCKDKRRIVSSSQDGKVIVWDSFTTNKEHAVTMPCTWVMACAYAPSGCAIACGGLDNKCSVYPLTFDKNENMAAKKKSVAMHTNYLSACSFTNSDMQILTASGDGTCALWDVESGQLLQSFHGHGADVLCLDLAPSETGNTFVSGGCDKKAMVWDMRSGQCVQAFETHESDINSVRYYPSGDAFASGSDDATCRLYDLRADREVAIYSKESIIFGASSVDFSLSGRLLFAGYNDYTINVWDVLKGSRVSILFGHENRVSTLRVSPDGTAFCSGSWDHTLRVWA
Chain of RGS9/Gβ5 duplex (O75916 whole entry): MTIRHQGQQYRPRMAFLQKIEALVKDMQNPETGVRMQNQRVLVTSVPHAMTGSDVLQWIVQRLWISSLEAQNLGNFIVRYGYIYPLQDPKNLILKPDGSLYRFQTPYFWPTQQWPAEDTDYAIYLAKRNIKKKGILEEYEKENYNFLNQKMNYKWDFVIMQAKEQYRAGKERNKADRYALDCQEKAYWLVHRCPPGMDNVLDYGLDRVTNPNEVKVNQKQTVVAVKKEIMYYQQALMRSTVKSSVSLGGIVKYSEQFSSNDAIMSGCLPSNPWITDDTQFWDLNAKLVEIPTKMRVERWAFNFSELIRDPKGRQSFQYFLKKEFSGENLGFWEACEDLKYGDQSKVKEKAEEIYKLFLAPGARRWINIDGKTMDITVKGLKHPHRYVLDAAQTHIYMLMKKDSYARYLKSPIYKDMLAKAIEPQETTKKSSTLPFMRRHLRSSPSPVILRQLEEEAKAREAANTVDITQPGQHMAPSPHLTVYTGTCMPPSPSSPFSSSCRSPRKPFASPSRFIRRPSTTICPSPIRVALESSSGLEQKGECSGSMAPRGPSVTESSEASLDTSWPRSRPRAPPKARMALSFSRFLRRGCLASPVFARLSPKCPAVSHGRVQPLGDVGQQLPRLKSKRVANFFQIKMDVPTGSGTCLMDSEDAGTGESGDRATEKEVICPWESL
Chain of RGS9/Gβ5 duplex (O14775 43-395): as the sequence (O14775 43-395) above
Chain of RGS7/Gβ5 duplex (P49802 whole entry): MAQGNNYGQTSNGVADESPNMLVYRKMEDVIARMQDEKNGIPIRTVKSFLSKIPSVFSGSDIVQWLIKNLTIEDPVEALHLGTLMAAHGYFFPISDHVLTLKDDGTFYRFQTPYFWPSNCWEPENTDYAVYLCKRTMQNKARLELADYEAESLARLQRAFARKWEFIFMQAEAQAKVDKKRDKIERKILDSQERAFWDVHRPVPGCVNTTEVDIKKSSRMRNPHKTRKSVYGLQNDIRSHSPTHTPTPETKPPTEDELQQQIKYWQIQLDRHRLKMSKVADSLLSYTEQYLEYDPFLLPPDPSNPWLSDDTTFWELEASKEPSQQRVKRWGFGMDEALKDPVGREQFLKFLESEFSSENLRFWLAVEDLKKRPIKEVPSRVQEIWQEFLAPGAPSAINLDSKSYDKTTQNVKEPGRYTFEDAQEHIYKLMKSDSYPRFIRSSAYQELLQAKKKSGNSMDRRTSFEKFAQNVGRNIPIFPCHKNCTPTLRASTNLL
Chain of RGS7/Gβ5 duplex (O14775 43-395): as the sequence (O14775 43-395) above
Chain of RGS7/TS-Gβ5 duplex (human) (P49802 whole entry, chain 1 of 2): as the sequence (P49802 whole entry) above
Chain of RGS7/TS-Gβ5 duplex (human) (O14775 43-395, chain 2 of 2, further chain): as the sequence (O14775 43-395) above
Chain of RGS11/Gβ5 duplex (O94810 whole entry): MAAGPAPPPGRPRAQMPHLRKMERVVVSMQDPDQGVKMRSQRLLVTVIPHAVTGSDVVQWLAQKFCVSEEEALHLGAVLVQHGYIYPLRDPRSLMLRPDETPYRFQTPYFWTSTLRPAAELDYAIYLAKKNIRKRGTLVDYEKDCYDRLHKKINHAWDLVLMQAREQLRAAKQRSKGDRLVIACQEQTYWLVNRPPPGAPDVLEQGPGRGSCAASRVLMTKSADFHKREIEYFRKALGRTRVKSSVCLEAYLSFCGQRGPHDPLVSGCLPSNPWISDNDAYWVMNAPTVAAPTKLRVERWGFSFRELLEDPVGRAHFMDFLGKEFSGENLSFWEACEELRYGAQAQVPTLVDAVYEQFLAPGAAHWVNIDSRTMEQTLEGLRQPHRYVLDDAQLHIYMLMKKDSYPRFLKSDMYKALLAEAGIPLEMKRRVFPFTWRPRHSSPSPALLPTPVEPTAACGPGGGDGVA
Chain of RGS11/Gβ5 duplex (O14775 43-395): as the sequence (O14775 43-395) above

For “R7BPΔNC (construct R7BPΔNC-TEV-TS) (from UniProt Q6MZT1 21-223) (domain or fragment)”, in experiment [1], the percent reduction of the binding of R7BP-FL with the RGS7/Gβ5 duplex worked out at 50%.

In the case of “RGS6/Gβ5 duplex (from UniProt P49758 1-472; O14775-2 1-353) (complex)”, the dissociation constant (Kd) (as a rule, the free concentration of one partner at which half of the binding sites on the other are occupied at equilibrium, for simple one-to-one binding) in experiment [2] was found to be 1.5 nM.

“RGS7/Gβ5 duplex (from UniProt P49802 1-495; O14775-2 1-353) (complex)” yielded an equilibrium dissociation constant (Kd) in experiment [2] of 2.3 nM.

Turning to “RGS9/Gβ5 duplex (from UniProt O75916 1-674; O14775-2 1-353) (complex)”, the Kd in experiment [2] is 3.2 nM.

For “RGS11/Gβ5 duplex (from UniProt O94810 1-467; O14775-2 1-353) (complex)”, the Kd in experiment [2] worked out at 1.5 nM.

These data come from PMC6744478.
